# Experimental data published in the supplement of paper PMC5998384.
# Columns and labels:
# HeLa Kyoto [1] = experiment: solubility in G1/S (NP-40 vs SDS abundance) (log2 ratio); higher = more soluble; settings: cell cycle stage: G1/S
# HeLa Kyoto [2] = experiment: solubility change mitosis vs G1/S (difference of NP-40 vs SDS log2 ratios) (log2 ratio difference); higher = more soluble in mitosis
# 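Throughout, for solubility change mitosis vs G1/S (difference of NP-40 vs SDS log2 ratios): synchronized HeLa Kyoto cells (double thymidine block for G1/S, nocodazole release for mitosis), protein amounts in NP-40 versus SDS lysates quantified by mass spectrometry, three biological replicates.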
# 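Throughout, for solubility in G1/S (NP-40 vs SDS abundance): HeLa Kyoto cells arrested at G1/S by double thymidine block, proteins quantified by TMT10plex mass spectrometry in mild NP-40 versus SDS extracts, three biological replicates.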
Sequence,solubility in G1/S (log2) (HeLa Kyoto [1]),solubility change mitosis (log2) (HeLa Kyoto [2])
MAALTPRKRKQDSLKCDSLLHFTENLFPSPNKKHCFYQNSDKNEENLHCSQQEHFVLSALKTTEINRLPSANQGSPFKSALSTVSFYNQNKWYLNPLERKLIKESRSTCLKTNDEDKSFPIVTEKMQGKPVCSKKNNKKPQKSLTAKYQPKYRHIKPVSRNSRNSKQNRVIYKPIVEKENNCHSAENNSNAPRVLSQKIKPQVTLQGGAAFFVRKKSSLRKSSLENEPSLGRTQKSKSEVIEDSDVETVSEKKTFATRQVPKCLVLEEKLKIGLLSASSKNKEKLIKDSSDDRVSSKEHKVDKNEAFSSEDSLGENKTISPKSTVYPIFSASSVNSKRSLGEEQFSVGSVNFMKQTNIQKNTNTRDTSKKTKDQLIIDAGQKHFGATVCKSCGMIYTASNPEDEMQHVQHHHRFLEGIKYVGWKKERVVAEFWDGKIVLVLPHDPSFAIKKVEDVQELVDNELGFQQVVPKCPNKIKTFLFISDEKRVVGCLIAEPIKQAFRVLSEPIGPESPSSTECPRAWQCSDVPEPAVCGISRIWVFRLKRRKRIARRLVDTLRNCFMFGCFLSTDEIAFSDPTPDGKLFATKYCNTPNFLVYNFNS [ESCO2],-0.994,0.997
MAAPSLLNWRRVSSFTGPVPRARHGHRAVAIRELMIIFGGGNEGIADELHVYNTATNQWFLPAVRGDIPPGCAAHGFVCDGTRILVFGGMVEYGRYSNELYELQASRWLWKKVKPHPPPSGLPPCPRLGHSFSLYGNKCYLFGGLANESEDSNNNVPRYLNDFYELELQHGSGVVGWSIPVTKGVVPSPRESHTAVIYCKKDSGSPKMYVFGGMCGARLDDLWQLDLETMSWSKPETKGTVPLPRSLHTASVIGNKMYIFGGWVPHKGENTETSPHDCEWRCTSSFSYLNLDTTEWTTLVSDSQEDKKNSRPRPRAGHCAVAIGTRLYFWSGRDGYKKALNSQVCCKDLWYLDTEKPPAPSQVQLIKATTNSFHVKWDEVSTVEGYLLQLSTDLPYQAASSDSSAAPNMQGVRMDPHRQGSNNIVPNSINDTINSTKTEQPATKETSMKNKPDFKALTDSNAILYPSLASNASNHNSHVVDMLRKNEGPHTSANVGVLSSCLDVRTVIPETSVSSTVSSTQTMVTQQTIKTESSSTNGAVVKDETSLTTFSTKSEVDETYALPATKISRVETHATATPFSKETPSNPVATVKAGERQWCDVGIFKNNTALVSQFYLLPKGKQSISKVGNADVPDYSLLKKQDLVPGTGYRFRVAAINGCGIGPFSKISEFKTCIPGFPGAPSAVRISKNVEGIHLSWEPPTSPSGNILEYSAYLAIRTAQIQDNPSQLVFMRIYCGLKTSCIVTAGQLANAHIDYTSRPAIVFRISAKNEKGYGPATQVRWLQGNNKKAPLN [HCFC2],-0.228,-0.0821
MAATLILEPAGRCCWDEPVRIAVRGLAPEQPVTLRASLRDEKGALFQAHARYRADTLGELDLERAPALGGSFAGLEPMGLLWALEPEKPLVRLVKRDVRTPLAVELEVLDGHDPDPGRLLCRVRHERYFLPPGVRREPVRAGRVRGTLFLPPEPGPFPGIVDMFGTGGGLLEYRASLLAGKGFAVMALAYYNYEDLPKTMETLHLEYFEEAVNYLLSHPEVKGPGVGLLGISKGGELCLSMASFLKGITAAVVINGSVANVGGTLRYKGETLPPVGVNRNRIKVTKDGYADIVDVLNSPLEGPDQKSFIPVERAESTFLFLVGQDDHNWKSEFYANEACKRLQAHGRRKPQIICYPETGHYIEPPYFPLCRASLHALVGSPIIWGGEPRAHAMAQVDAWKQLQTFFHKHLGGHEGTIPSKV [ACOT1],0.138,-0.000552
MAAVEAAAEPVTVVAAVGPKAKDEEEEEEEPLPPCEAVRWAPVGAVAEARPGATAFLEEATAEEPGAAPGSPPDSPGRTLRRLRAERRRLDSALLALSSHFAQVQFRLRQVVRGAPAEQQRLLRELEDFAFRGCPHVLGYEGPGDPASDEGDGLPGDRPWLRGEDQSEQEKQERLETQREKQKELILQLKTQLDDLETFAYQEGSYDSLPQSVVLERQRVIIDELIKKLDMNLNEDISSLSTEELRQRVDAAVAQIVNPARVKEQLVEQLKTQIRDLEMFINFIQDEVGSPLQTGGGHCECKAGGKTGNGCSRTGSSRTPPGNSKTKAEDVKKVRETGLHLMRRALAVLQIFAVSQFGCATGQIPPTLWQRVQADRDYSPLLKRLEVSVDRVKQLALRQQPHDHVITSANLQDLSLGGKDELTMAVRKELTVAVRDLLAHGLYASSPGMSLVMAPIACLLPAFSSAPEAMHPWELFVKYYHAKNGRAYVESPARKLSQSFALPVTGGTVVTPKQSLLTAIHMVLTEHDPFKRSADSELKALVCMALNEQRLVSWVNLICKSGSLIEPHYQPWSYMAHTGFESALNLLSRLSSLKFSLPVDLAVRQLKNIKDAF [RUNDC1],-0.124,-0.215
MADAAATAGAGGSGTRSGSKQSTNPADNYHLARRRTLQVVVSSLLTEAGFESAEKASVETLTEMLQSYISEIGRSAKSYCEHTARTQPTLSDIVVTLVEMGFNVDTLPAYAKRSQRMVITAPPVTNQPVTPKALTAGQNRPHPPHIPSHFPEFPDPHTYIKTPTYREPVSDYQVLREKAASQRRDVERALTRFMAKTGETQSLFKDDVSTFPLIAARPFTIPYLTALLPSELEMQQMEETDSSEQDEQTDTENLALHISMEDSGAEKENTSVLQQNPSLSGSRNGEENIIDNPYLRPVKKPKIRRKKSLS [TAF8],0.116,0.0206
MADSAELKQMVMSLRVSELQVLLGYAGRNKHGRKHELLTKALHLLKAGCSPAVQMKIKELYRRRFPQKIMTPADLSIPNVHSSPMPATLSPSTIPQLTYDGHPASSPLLPVSLLGPKHELELPHLTSALHPVHPDIKLQKLPFYDLLDELIKPTSLASDNSQRFRETCFAFALTPQQVQQISSSMDISGTKCDFTVQVQLRFCLSETSCPQEDHFPPNLCVKVNTKPCSLPGYLPPTKNGVEPKRPSRPINITSLVRLSTTVPNTIVVSWTAEIGRNYSMAVYLVKQLSSTVLLQRLRAKGIRNPDHSRALIKEKLTADPDSEIATTSLRVSLLCPLGKMRLTIPCRALTCSHLQCFDATLYIQMNEKKPTWVCPVCDKKAPYEHLIIDGLFMEILKYCTDCDEIQFKEDGTWAPMRSKKEVQEVSASYNGVDGCLSSTLEHQVASHHQSSNKNKKVEVIDLTIDSSSDEEEEEPSAKRTCPSLSPTSPLNNKGILSLPHQASPVSRTPSLPAVDTSYINTSLIQDYRHPFHMTPMPYDLQGLDFFPFLSGDNQHYNTSLLAAAAAAVSDDQDLLHSSRFFPYTSSQMFLDQLSAGGSTSLPTTNGSSSGSNSSLVSSNSLRESHSHTVTNRSSTDTASIFGIIPDIISLD [PIAS1],-0.461,0.113
MADSERLSAPGCWAACTNFSRTRKGILLFAEIILCLVILICFSASTPGYSSLSVIEMILAAIFFVVYMCDLHTKIPFINWPWSDFFRTLIAAILYLITSIVVLVERGNHSKIVAGVLGLIATCLFGYDAYVTFPVRQPRHTAAPTDPADGPV [PLP2],-0.0955,-0.163
MADSSGRGAGKPATGPTNSSSAKKKDKRVQGGRVIESRYLQYEKKTTQKAPAGDGSQTRGKMSEGGRKSSLLQKSKADSSGVGKGDLQSTLLEGHGTAPPDLDLSAINDKSIVKKTPQLAKTISKKPESTSFSAPRKKSPDLSEAMEMMESQTLLLTLLSVKMENNLAEFERRAEKNLLIMCKEKEKLQKKAHELKRRLLLSQRKRELADVLDAQIEMLSPFEAVATRFKEQYRTFATALDTTRHELPVRSIHLEGDGQQLLDALQHELVTTQRLLGELDVGDSEENVQVLDLLSELKDVTAKKDLELRRSFAQVLELSAEASKEAALANQEVWEETQGMAPPSRWYFNQDSACRESGGAPKNTPLSEDDNPGASSAPAQATFISPSEDFSSSSQAEVPPSLSRSGRDLS [HAUS8],0.514,0.189
MADVEDGEETCALASHSGSSGSKSGGDKMFSLKKWNAVAMWSWDVECDTCAICRVQVMDACLRCQAENKQEDCVVVWGECNHSFHNCCMSLWVKQNNRCPLCQQDWVVQRIGK [RNF7],-0.165,-0.169
MADWARAQSPGAVEEILDRENKRMADSLASKVTRLKSLALDIDRDAEDQNRYLDGMDSDFTSMTSLLTGSVKRFSTMARSGQDNRKLLCGMAVGLIVAFFILSYFLSRART [BET1L],-0.104,0.0489
MAEAVERTDELVREYLLFRGFTHTLRQLDAEIKADKEKGFRVDKIVDQLQQLMQVYDLAALRDYWSYLERRLFSRLEDIYRPTIHKLKTSLFRFYLVYTIQTNRNDKAQEFFAKQATELQNQAEWKDWFVLPFLPSPDTNPTFATYFSRQWADTFIVSLHNFLSVLFQCMPVPVILNFDAECQRTNQVQEENEVLRQKLFALQAEIHRLKKEEQQPEEEEALVQHKLPPYVSNMDRLGDSELAMVCSQRNASLSQSPRVGFLSSLLPQSKKSPSRLSPAQGPPQPQSSAKKESFGGQGTKGKDPTSGAKDGKSLLSGLATGESGWSQHRQRRLQDHGKERKELFSTTTSQCAEKKPEASGPEAEPCPELHTEPVEPLTRASSAGPEGGGVRPEQPFIVLGQEEYGEHHSSIMHCRVDCSGRRVASLDVDGVIKVWSFNPIMQTKASSISKSPLLSLEWATKRDRLLLLGSGVGTVRLYDTEAKKNLCEININDNMPRILSLACSPNGASFVCSAAAPSLTSQVDFSAPDIGSKGMNQVPGRLLLWDTKTMKQQLQFSLDPEPIAINCTAFNHNGNLLVTGAADGVIRLFDMQQHECAMSWRAHYGEVYSVEFSYDENTVYSIGEDGKFIQWNIHKSGLKVSEYSLPSDATGPFVLSGYSGYKQVQVPRGRLFAFDSEGNYMLTCSATGGVIYKLGGDEKVLESCLSLGGHRAPVVTVDWSTAMDCGTCLTASMDGKIKLTTLLAHKA [WDR91],-0.122,0.0607
MAEEVSTLMKATVLMRQPGRVQEIVGALRKGGGDRLQVISDFDMTLSRFAYNGKRCPSSYNILDNSKIISEECRKELTALLHHYYPIEIDPHRTVKEKLPHMVEWWTKAHNLLCQQKIQKFQIAQVVRESNAMLREGYKTFFNTLYHNNIPLFIFSAGIGDILEEIIRQMKVFHPNIHIVSNYMDFNEDGFLQGFKGQLIHTYNKNSSACENSGYFQQLEGKTNVILLGDSIGDLTMADGVPGVQNILKIGFLNDKVEERRERYMDSYDIVLEKDETLDVVNGLLQHILCQGVQLEMQGP [NT5C3B],0.00588,-0.136
MAEIIQERIEDRLPELEQLERIGLFSHAEIKAIIKKASDLEYKIQRRTLFKEDFINYVQYEINLLELIQRRRTRIGYSFKKDEIENSIVHRVQGVFQRASAKWKDDVQLWLSYVAFCKKWATKTRLSKVFSAMLAIHSNKPALWIMAAKWEMEDRLSSESARQLFLRALRFHPECPKLYKEYFRMELMHAEKLRKEKEEFEKASMDVENPDYSEEILKGELAWIIYKNSVSIIKGAEFHVSLLSIAQLFDFAKDLQKEIYDDLQALHTDDPLTWDYVARRELEIESQTEEQPTTKQAKAVEVGRKEERCCAVYEEAVKTLPTEAMWKCYITFCLERFTKKSNSGFLRGKRLERTMTVFRKAHELKLLSECQYKQLSVSLLCYNFLREALEVAVAGTELFRDSGTMWQLKLQVLIESKSPDIAMLFEEAFVHLKPQVCLPLWISWAEWSEGAKSQEDTEAVFKKALLAVIGADSVTLKNKYLDWAYRSGGYKKARAVFKSLQESRPFSVDFFRKMIQFEKEQESCNMANIREYYERALREFGSADSDLWMDYMKEELNHPLGRPENCGQIYWRAMKMLQGESAEAFVAKHAMHQTGHL [UTP6],-2.05,0.707
